Among the data in article PMC6856373, “The first comprehensive phylogenetic and biochemical analysis of NADH diphosphatases reveals that the enzyme from Tuber melanosporum is highly active towards NAD^+” (Scientific Reports, 2019) are Km, kcat and kcat/Km values, retold here.

Substrate in series [1]: NC(=O)C1=CN([C@@H]2O[C@H](COP(=O)(O)OP(=O)(O)OC[C@H]3O[C@@H](n4cnc5c(N)ncnc54)[C@H](O)[C@@H]3O)[C@@H](O)[C@H]2O)C=CC1
The series can be described thus: HPLC of AMP formation, initial rates, Michaelis-Menten fit. Conditions: 50 mM Tris-HCl pH 8.0, 37 °C, 0.5 mM MnCl2. It is filed as biochemical, Tuber melanosporum. An excerpt:
(§1) HPLC of AMP formation, initial rates, Michaelis-Menten fit on […]

Substrate in series [2]: NC(=O)c1ccc[n+]([C@@H]2O[C@H](COP(=O)(O)OP(=O)(O)OC[C@H]3O[C@@H](n4cnc5c(N)ncnc54)[C@H](O)[C@@H]3O)[C@@H](O)[C@H]2O)c1
The description is as above. Type of series: biochemical, Tuber melanosporum. Conditions: 50 mM Tris-HCl pH 8.0, 37 °C, 0.5 mM MnCl2.
Description: as §1

B1: TmNADD (Tuber melanosporum Mel28) (protein)
chain: MTQPYTATTESHKTSMLSRKFGQEIINYFSGSPLNRVSFLRSSTAFLRAALPRSKFLLMRDLEPLAASKTTLAWVGYETVRELVGNPFDTEEEEFLRGYDSRVEIPTLVFLGMNEEGTGGGGGGESFEFEGEGGKYVGGPCFALDVTEKGSLKEECEKVQEEAVKGAEGREFRKVRLDLSLVPSDAAILAQARSLLDWNNRNQFCSACGARTVSVHAGTKRICPPSDKAFQKDPEGPPFERPPCISRKGIHNIAFPRTDPTVIMAIINSTGDKVLLGRQRRWPKDFYSTLAGFCEPAESVEDAVRRETWEESGVRVGRVVIHSTQPWPYPANLMMGAIGEALPGGEEIVLKHDPELEDAQWVEVGRVRNALQESTGTPDVEVEGAIEGQLRLPPSTAIAHQLLLAVVNGFHLAKL
By Km is commonly meant the concentration of substrate that gives half-maximal velocity. One may read the kcat as the number of substrate molecules converted per active site and unit of time at saturation. The kcat/Km is the turnover number divided by the Michaelis constant. Take B1: in series [1], the Km stood at 120 ± 10 µM, the turnover number (kcat) was 10.7 ± 1.8 s⁻¹ and the kcat/Km came to 89200 ± 19800 M⁻¹ s⁻¹. Also, in series [2], the Km was 310 ± 50 µM, the turnover number (kcat) is 2.9 ± 0.2 s⁻¹ and the kcat/Km was 9300 ± 1600 M⁻¹ s⁻¹.
